Measurements from article PMC11883000, “Structure-function relationship of ASH1L and histone H3K36 and H3K4 methylation” (Nature Communications, 2025).
“Also recorded” adds a separate entry of the source.

What was measured:
Type in all cases: binding
[1] = system: 147 bp 601 DNA; assay: EMSA with 147 bp 601 DNA; details: 0.05 µM 147 bp 601 DNA, increasing protein, 25 mM Tris pH 7.5, 20 mM NaCl, 20% glycerol, on ice 5 min, at least in duplicate
[2] = system: H3K4me3-NCP; details: EMSA
[3] = system: unmodified 187 bp NCP; assay: EMSA with unmodified 187 bp NCP
[4] = system: unmodified 147 bp NCP; assay: EMSA with unmodified 147 bp NCP; details: 0.025 µM nucleosome, pH 7.5, compared to H3K4me3-NCP

Molecule	DNA binding [1]	other results
K2477Q/K2478Q/K2479Q mutant: K2477Q/K2478Q/K2479Q mutant of ASH1LBD (protein, UniProt Q9NR48 2430-2564, looked up, variant K2477Q K2478Q K2479Q, bromodomain, K2477Q/K2478Q/K2479Q mutant of ASH1LBD) LAAAEENIEVARAARLAQIFKEICDGIISYKDSSRQALAAPLLNLPPQQQNADYYEKISDPLDLITIEKQILTGYYKTVEAFDADMLKVFRNAEKYYGRKSPVGRDVCRLRKAYYNARHEASAQIDEIVGETASE	diminished	
K2524Q/R2528Q/K2529Q mutant: K2524Q/R2528Q/K2529Q mutant of ASH1LBD (protein, UniProt Q9NR48 2430-2564, looked up, variant K2524Q R2528Q K2529Q, bromodomain, K2524Q/R2528Q/K2529Q mutant of ASH1LBD) LAAAEENIEVARAARLAQIFKEICDGIISYKDSSRQALAAPLLNLPPKKKNADYYEKISDPLDLITIEKQILTGYYKTVEAFDADMLKVFRNAEQYYGQQSPVGRDVCRLRKAYYNARHEASAQIDEIVGETASE	lost its ability to bind DNA	
ASH1LBD-PHD-BAH: Human ASH1L construct (aa 2436-2833) (protein, UniProt Q9NR48 2436-2833, looked up, fragment) NIEVARAARLAQIFKEICDGIISYKDSSRQALAAPLLNLPPKKKNADYYEKISDPLDLITIEKQILTGYYKTVEAFDADMLKVFRNAEKYYGRKSPVGRDVCRLRKAYYNARHEASAQIDEIVGETASEADSSETSVSEKENGHEKDDDVIRCICGLYKDEGLMIQCDKCMVWQHCDCMGVNSDVEHYLCEQCDPRPVDREVPMIPRPHYAQPGCVYFICLLRDDLLLRQGDCVYLMRDSRRTPDGHPVRQSYRLLSHINRDKLDIFRIEKLWKNEKEERFAFGHHYFRPHETHHSPSRRFYHNELFRVPLYEIIPLEAVVGTCCVLDLYTYCKGRPKGVKEQDVYICDYRLDKSAHLFYKIHRNRYPVCTKPYAFDHFPKKLTPKKDFSPHYVPDNY	restored; also recorded: further increased	preference over 147bp-NCP ([2]; H3K4me3-NCP over 147bp-NCP): maintained; preference over 147bp-NCP ([3]; 187bp-NCP over 147bp-NCP): maintained; also recorded: this preference was retained

Second part, led by results:

DNA binding [1]	Molecule	other results
forms a complex with DNA	ASH1LBD: Human ASH1L bromodomain (aa 2430-2564) (protein, left off: GST, end not stated, cleaved) LAAAEENIEVARAARLAQIFKEICDGIISYKDSSRQALAAPLLNLPPKKKNADYYEKISDPLDLITIEKQILTGYYKTVEAFDADMLKVFRNAEKYYGRKSPVGRDVCRLRKAYYNARHEASAQIDEIVGETASE	
forms a tight complex with 601 DNA	ASH1LPHD-BAH: Human ASH1L construct (aa 2579-2794 and 2579-2834) (protein, UniProt Q9NR48 2579-2834, looked up, fragment, also 2579-2794 construct) HEKDDDVIRCICGLYKDEGLMIQCDKCMVWQHCDCMGVNSDVEHYLCEQCDPRPVDREVPMIPRPHYAQPGCVYFICLLRDDLLLRQGDCVYLMRDSRRTPDGHPVRQSYRLLSHINRDKLDIFRIEKLWKNEKEERFAFGHHYFRPHETHHSPSRRFYHNELFRVPLYEIIPLEAVVGTCCVLDLYTYCKGRPKGVKEQDVYICDYRLDKSAHLFYKIHRNRYPVCTKPYAFDHFPKKLTPKKDFSPHYVPDNYK	binding to H3K4me3-NCP ([2]; 0.025 µM nucleosome, increasing protein, pH 7.5, on ice 5 min): formed a tight complex; binding to unmodified 147 bp NCP [4]: decreased; binding to unmodified 187 bp NCP ([3]; 0.025 µM nucleosome, pH 7.5, compared to unmodified 147 bp NCP): increased
decreased	ASH1LBD-PHD: Human ASH1L construct (aa 2430-2629) (protein) NIEVARAARLAQIFKEICDGIISYKDSSRQALAAPLLNLPPKKKNADYYEKISDPLDLITIEKQILTGYYKTVEAFDADMLKVFRNAEKYYGRKSPVGRDVCRLRKAYYNARHEASAQIDEIVGETASEADSSETSVSEKENGHEKDDDVIRCICGLYKDEGLMIQCDKCMVWQHCDCMGVNSDVEHYLCEQCDPRPVDREVP	
